The text below walks through data of KR20200110551A.

Assay [1] has as its target FMDV 혈청형 O (진천주) (Foot and Mouth Disease Virus serotype O (Jincheon strain)). Nature of the assay: cell-based or functional assay.
Assay [2] shares this target.

B1: 단클론항체 8B87 (antibody, V domains shown)
VH: KKPGETVKISCKASGYTFTNYGVSWVKQVPGKGLKWMGWINTNTGKPAYADDFKGRFAFYLDTSASTAYLQISNLKNEDEATYFCVIYHDYLWFAYWGQGTLITVSA
VL: NIVLTQSPASLAVSLGQRATISCRASNSVDTYGNSFMHWYQQRPGQPPKLLIFLASDLESGVPGRFRGSGSRTDFTLTIDPVEADDAATYYCQQNYADPWTFGGGTKLEIK
B1 registered a VNT titer in assay [1] of 64. This molecule gave an ELISA screening plate (O.D 450nm) in assay [2] of 2.23 O.D 450nm.
